From patent US20120134979A1, “METHODS AND COMPOSITIONS FOR THE TREATMENT OF SICKLE CELL DISEASE” (priority 2010, published 2012) come the findings set out here.

Experiment [1] concerns SCD Tg mice. Briefly: Plasma adenosine levels in SCD Tg mice under weekly PEG-ADA. Format: in vivo, mouse. The settings on record: weekly injection 2.5 U/week for 8 weeks. The protocol: Adenosine Analysis. […] B., et al. Effects of (R)-deoxycoformycin (pentostatin) on intrauterine nucleoside catabolism and embryo viability in the pregnant mouse. Teratology 45, 91-103, 1992) with modifications. In brief, 500 μl of 0.6 M cold perchloric acid was added to 500 μl blood on ice, mixed using a vertex mixer and subsequently subject to sonication for 10 seconds with output 6 (W-220F, Heat Systems-Ultrasonic, Inc.). The homogenate was centrifuged at 20,000 g for 10 min at […]. The supernatant (568 μl) was transferred to a new tube and neutralized with 40.9 μl 3 M KHCO3/3.6 N KOH. Phenol red (2 μl of 0.2 mg/ml) was added as indicator. The sample was acidified with 5.7 μl of 1.8 M ammonium dihydrogen phosphate (pH 5.1) and 13.2 μl phosphoric acid (30%). Finally, the sample was centrifuged at 20,000 g for 5 min and the supernatant was transferred to a new tube and stored at −20° C. Before HPLC assay, the sample was thawed on ice, then centrifuged at 20,000 g for 10 minutes. […]

Experiment [2] deals with SCD Tg mice. In words: Hemolytic analysis of plasma of SCD Tg mice after chronic treatment. Conditions: chronic PEG-ADA treatment. The format is in vivo, mouse. The protocol: Chronic PEG-ADA therapy. SCD transgenic mice, at eight weeks of age, were divided to two groups. One group was injected with 2.5 U PEG-ADA weekly for 8 weeks. This dosing protocol was designated SCD with PEG-ADA treatment regimen (SCD+PEG-ADA). Another group was injected with normal saline for 8 weeks; it was designated as SCD without PEG-ADA treatment regimen (SCD). Wild-type mice (C57Bl/6) used as control were injected with saline or PEG-ADA as with the SCD groups.
Hemolytic analysis. The hemoglobin, haptoglobin and total bilirubin in mouse plasma were quantified by ELISA kits following instructions provided by the vendor (BioAssay Systems, Hayword, Calif.).

The test system of experiment [3] is RBCs from SCD patients. In words: Hypoxia-induced 2,3-DPG in erythrocytes purified from SCD patients. The format is cell-based, human. The settings on record: hypoxic conditions (2% oxygen). The protocol: Isolation of total erythrocytes and treatment of human and mouse erythrocytes in vitro. Blood collected with heparin as an anti-coagulant was centrifuged at 240×g for 10 min at room temperature, followed by aspiration of plasma and white interface. Packed red blood cells (RBCs) were washed 3 times with culture media (F-10 Ham's with 1% penicillin/streptomycin, 10% fetal bovine serum (FBS), and re-suspended to 4% hematocrit (HCT). One ml of RBCs was added to each well of a 12-well plate. Normal RBCs purified from humans were treated with different concentrations of 5′-(N-ethyl-carboxamido) adenosine (NECA, an adenosine receptor agonist, Sigma-Aldrich, St. Louis, Mo.) ranging from 1-50 μM for different time points (from 1 to 18 hr) under normoxic conditions. Normal RBCs were treated with 10 μM NECA in the presence or absence of adenosine receptor antagonists, including theophylline, PSB36, SCH442416, MRS1754 and MRS3777 (Tocris Bioscience, St. Louis, Mo.) at 10 μM. In addition, normal RBCs were treated directly with the A2BR agonist (BAY 60-6583, Bayer HealthCare AG, Wuppertal, Germany) or the A2AR agonist (CGS21680) (Tocris). Similarly, the mouse RBCs were treated with or without NECA at 10 μM in the presence or absence of theophylline (10 μM). In addition, RBCs purified from 4 adenosine receptor deficient mice were treated with 10 μM NECA. After 18 hours, cells were collected and 2,3-DPG levels were measured as described below. RBCs were purified from SCD patients and treated with or without 10 μM NECA, 5 units/ml polyethylene glycol-adenosine deaminase (PEG-ADA) or 3 mmol/L glycolic acid (Sigma-Aldrich), 10 μM MRS1754 (A2BR antagonist) under ambient oxygen (normoxia) or different levels of hypoxic conditions (for 3 hours with shaking at 37° C. At the end of experiments, 2,3-DPG levels were measured and the percentage of sickled cells determined as described below.
2,3-DPG analysis. 2,3-DPG concentration in RBCs was detected by a commercially available kit (Roche, Nutley, N.J., and as described in Ericson A, de Verdier C H. A modified method for the determination of 2,3-diphosphoglycerate in erythrocytes. Scandinavian journal of clinical and laboratory investigation. 1972; 29(1):84-90).

B1: PEG-ADA: polyethylene glycol-modified adenosine deaminase, a drug used to lower adenosine concentrations in ADA-deficient humans (protein, UniProt P56658 2-363, looked up)
Adenosine deaminase: AQTPAFNKPKVELHVHLDGAIKPETILYYGRKRGIALPADTPEELQNIIGMDKPLSLPEFLAKFDYYMPAIAGCREAVKRIAYEFVEMKAKDGVVYVEVRYSPHLLANSKVEPIPWNQAEGDLTPDEVVSLVNQGLQEGERDFGVKVRSILCCMRHQPSWSSEVVELCKKYREQTVVAIDLAGDETIEGSSLFPGHVKAYAEAVKSGVHRTVHAGEVGSANVVKEAVDTLKTERLGHGYHTLEDATLYNRLRQENMHFEVCPWSSYLTGAWKPDTEHPVVRFKNDQVNYSLNTDDPLIFKSTLDTDYQMTKNEMGFTEEEFKRLNINAAKSSFLPEDEKKELLDLLYKAYGMPSPASAEQCL
modifications: PEGylated
Consider B1, for which, in experiment [1], the “Adenosine levels in the plasma at different time points” value is listed as “lowered adenosine to a steady level within two weeks”. In addition, in experiment [2], the “plasma Hb” value is “decreased”, the plasma haptoglobin result is “increased” and the total bilirubin entry is given as “decreased”. Besides, the “hypoxia-mediated induction of 2,3-DPG” value in experiment [3] is “reduced”.
